Where a chain is given by its changes, count along the chain named.

For experiment [1], the target named is T1, canine IL17A-huFc (canine).
T1 construct: also called canine IL17A-hFc; not shown: human Fc on the C-terminal
T1 chain: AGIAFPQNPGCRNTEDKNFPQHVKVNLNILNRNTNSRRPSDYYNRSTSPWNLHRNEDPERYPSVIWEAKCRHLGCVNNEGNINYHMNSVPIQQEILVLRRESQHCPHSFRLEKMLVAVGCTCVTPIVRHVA
In words: ELISA; canine IL17A-huFc captured on anti-human Fc, detection goat anti-mouse Fc-HRP. How it is done: Binding affinity of monoclonal antibodies A, B, C, D, and E to canine IL17A-huFc polypeptide was analyzed by ELISA. In the binding ELISA performed, the wells were coated with anti-human Fc antibody. Canine IL17A-huFc protein was then added to the wells. Antibody purified from each of the five hybridoma clones was added to the wells at various concentrations (19.35 nM, 6.45 nM, 2.15 nM, 0.75 nM, 0.24 nM, 0.08 nM, 0.03 nM, and 0 nM). Goat anti-mouse Fc-HRP was added and color was developed. […] Table 3 below provides the EC50 values associated with the binding ELISA for each of the clones.
On the technique in general: In an ELISA, binding on a coated surface is turned into a signal by an enzyme label.

For experiment [2], the target named is T1, canine IL17A-huFc. Description: BLI (Octet); canine IL17A-huFc captured on anti-human Fc sensors, antibody at 10 µg/mL. How it is done: Briefly, antibody concentrations were measured by protein A assay using Biosensor Octet (Forte Bio). Canine IL17A-huFc was captured to anti-human Fc bound biosensors. The association of anti-IL17A antibody from clones A, C, D, and E to the canine IL17A-huFc was monitored for 90 seconds. Dissociation was monitored for 600 seconds. A buffer only blank curve was subtracted to correct for any drift. The data were fit to a 1:1 binding model using ForteBio™ data analysis software to determine the kon, koff, and the Kd. The buffer for dilutions and all binding steps was: 20 mM phosphate, 150 mM NaCl, pH 7.2.
(In general: Biolayer interferometry detects binding as a change in optical thickness at a sensor tip.)

In experiment [3] the target is T2, canine IL17A-polyHis (canine, biotinylated (EZ-Link NHS-LC-biotin) in the biosensor assays).
T2 construct: also called biotinylated canine IL17A-polyHis; not shown: poly-His tag on the C-terminal
T2 chain: T1 chain
In words: BLI (Octet); biotinylated canine IL17A-polyHis on streptavidin sensors, antibody 0-220 nM, 1:1 model. The procedure:
The binding analysis was performed using a Biosensor Octet as follows. Briefly, canine IL17A-polyHis, which was expressed and purified from CHO-S cells, was biotinylated using EZ-Link NHS-LC-biotin (Catalog No. 21336, Thermo Scientific). Free, unreacted biotin was removed from biotinylated IL17A by dialysis. Biotinylated canine IL17A was captured on streptavidin sensor tips (Catalog No. 18-509, ForteBio). The association of different concentrations (0 nM, 18.33 nM, 45.87 nM, 110 nM, 220 nM) of hybridoma Clone C or caninized Clone C antibody to canine IL17A was monitored for 90 seconds. Dissociation was monitored for 600 seconds. A buffer only blank curve was subtracted to correct for any drift. The data were fit to a 1:1 binding model using ForteBio™ data analysis software to determine the kₒₙ, koff, and the Kd. The buffer for dilutions and all binding steps was: 20 mM phosphate, 150 mM NaCl, pH 7.2.

The target of experiment [4] is T3, equine IL17A-polyHis (equine, biotinylated in the biosensor assay).
T3 construct: not shown: poly-His tag on the C-terminal
T3 chain: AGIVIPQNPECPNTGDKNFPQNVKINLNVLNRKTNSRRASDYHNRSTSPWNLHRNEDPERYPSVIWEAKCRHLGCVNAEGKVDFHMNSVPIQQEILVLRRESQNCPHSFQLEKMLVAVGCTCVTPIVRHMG
Description: BLI (Octet); biotinylated equine IL17A-polyHis on streptavidin sensors, antibody 20 µg/mL; BLI (Octet), biotinylated equine IL17A-polyHis on streptavidin sensor, antibody 20 µg/mL. How it is done: The binding analysis was performed using a Biosensor Octet as follows. Both feline IL17A-polyHis and equine IL17A-polyHis were biotinylated and immobilized to streptavidin biosensors. The association of monoclonal antibody Clones A, C, D, and E (20 μg/mL) to either feline or […] IL17A-polyHis was monitored for 90 seconds. Dissociation was monitored for 600 seconds. A buffer only blank curve was subtracted to correct for any drift. The data were fit to a 1:1 binding model using ForteBio™ data analysis software to determine the kₒₙ, koff, and the Kd. The buffer for dilutions and all binding steps was: 20 mM phosphate, 150 mM NaCl, pH 7.2. […] Weak binding signals of Clone A to feline IL17A and Clone C to feline IL17A were observed.

Experiment [5] has as its target T4, canine IL17A (as used at 1 nM in the H1080 cell assay) (canine).
T4 chain: T1 chain
Description: cell-based or functional assay.

Experiment [6] concerns the target T5, canine IL17A-hFc-polyHis Mutant 3 (Q103R).
T5 IL17A-hFc-polyHis fusion chain: T1 chain with Q103R
In words: Western blot of 3-fold concentrated 293 supernatants, 25 µL per lane, SDS-PAGE with or without DTT, PVDF, probed with Clone C. How it is done: (§1) Plasmid constructs containing nucleotide sequences encoding each of the canine IL17A-hFC-polyHis mutants were transiently transfected into 293 cells and the supernatants concentrated 3-fold. Each mutant was separated by SDS-PAGE (25 μL per lane) in the presence or absence of DTT and the proteins transferred to a PVDF membrane. The blot was probed using either Clone C antibody or anti-human IgG Fc (control).
In general terms: In western blotting, separated proteins are transferred to a membrane and probed.

In experiment [7] the target is T6, canine IL17A-hFc-polyHis Mutant 1 (R71L, L73W, I82T) (canine).
T6 construct: Tested as 3-fold concentrated supernatant of transfected 293 cells; not shown: human Fc; poly-His tag
T6 chain: T1 chain with R71L, L73W, I82T
Described as above. The procedure: as §1

For experiment [8], the target named is T7, canine IL17A-hFc-polyHis Mutant 5 (C-terminal deletion of amino acids 126-131).
T7 IL17A-hFc-polyHis fusion chain: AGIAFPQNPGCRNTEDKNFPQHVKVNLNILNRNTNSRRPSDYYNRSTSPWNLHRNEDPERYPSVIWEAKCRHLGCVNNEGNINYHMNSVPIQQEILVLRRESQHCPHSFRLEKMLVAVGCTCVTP
The description is as above. How it is done: as §1

B1: mouse monoclonal antibody Clone C (antibody, mouse IgG1, V domains shown)
VH: EVQLVESGGGLVQPGGSLKLSCAASGFTFSSYGMSWVRQTPDKRLELVAIINSNGGSTYYPDSVKGRFTISRDNDKNSLYLQMSSLKSEDTAMYYCVRCHYDYERVFDYWGQGTTLTVSS
VL: DIQMTQSSSYLSVSLGGRVTITCKANDHINNWLAWYQQKPGNAPRLLISGSTSLETGVPSRFSGSGSGKDYTLSITSLQTEDVATYYCQQYWSTPFTFGSGTKLEIK
notes: Hybridoma antibody; also called hybridoma Clone C
In general, EC50 refers to the concentration needed to bring the measured effect to its halfway point. A higher EC50 goes with a less potent agent. The Kd is the equilibrium constant for the complex coming apart. A low value points to tighter binding. Turning to B1, the response in experiment [1] was half-maximal at 0.2 ng/mL (EC50). In addition, the Kd was under 10 nM in experiment [2], 7.9 nM in experiment [3] and 0.13 nM in experiment [4]. Besides, the “EC50 (ng/mL), H1080 Cell Functional Assay (IL6 secretion)” value in experiment [5] came out at 7 ng/mL. For the same molecule, the binding result in experiment [6], in experiment [7] and in experiment [8] was “binds” each time.

(Values after US20200199216A1 (KINDRED BIOSCIENCES, published 2020).)
